Patent US20190167710A1 (UNIVERSITY OF PITTSBURGH OF THE COMMONWEALTH SYSTEM OF …, published 2019)

Legend:
[1] = target: T1, anaplastic lymphoma kinase (ALK), mouse, endogenous in iBMDMs and RAW264.7 cells (mouse, UniProt P97793 19-1621, limits assumed); test: co-immunoprecipitation from iBMDMs and RAW264.7 cells after 3'3'-cGAMP or c-di-AMP (10 µg/ml, 16 h)
T1 construct: Endogenous protein in lysates of mouse macrophage lines (co-immunoprecipitation); also called ALK Receptor Tyrosine Kinase
Protocol: (§1) Concentrations of proteins in the supernatant were determined by bicinchoninic acid assay. […] Following incubation, agarose/sepharose beads were washed extensively with PBS and proteins were eluted by boiling in 2× sodium dodecyl sulfate (SDS) sample buffer before SDS-PAGE electrophoresis.
(§2) To elucidate the possible role of ALK in the regulation of the STING signaling pathway, we tested whether ALK promotes the phosphorylation of core components of the STING pathway (STING, TBK1, and cGAS) through protein-protein interaction using co-immunoprecipitation techniques.

[2] = target: T2, anaplastic lymphoma kinase (ALK), human, endogenous in THP1 cells (human, UniProt Q9UM73 19-1620, limits assumed); test: co-immunoprecipitation from THP1 cells after 3'3'-cGAMP or c-di-AMP (10 µg/ml, 16 h)
T2 construct: Endogenous protein in lysates of human THP1 monocytes; also called ALK Receptor Tyrosine Kinase
Protocol: as §1, §2

T1 sequence (P97793 19-1621 limits assumed): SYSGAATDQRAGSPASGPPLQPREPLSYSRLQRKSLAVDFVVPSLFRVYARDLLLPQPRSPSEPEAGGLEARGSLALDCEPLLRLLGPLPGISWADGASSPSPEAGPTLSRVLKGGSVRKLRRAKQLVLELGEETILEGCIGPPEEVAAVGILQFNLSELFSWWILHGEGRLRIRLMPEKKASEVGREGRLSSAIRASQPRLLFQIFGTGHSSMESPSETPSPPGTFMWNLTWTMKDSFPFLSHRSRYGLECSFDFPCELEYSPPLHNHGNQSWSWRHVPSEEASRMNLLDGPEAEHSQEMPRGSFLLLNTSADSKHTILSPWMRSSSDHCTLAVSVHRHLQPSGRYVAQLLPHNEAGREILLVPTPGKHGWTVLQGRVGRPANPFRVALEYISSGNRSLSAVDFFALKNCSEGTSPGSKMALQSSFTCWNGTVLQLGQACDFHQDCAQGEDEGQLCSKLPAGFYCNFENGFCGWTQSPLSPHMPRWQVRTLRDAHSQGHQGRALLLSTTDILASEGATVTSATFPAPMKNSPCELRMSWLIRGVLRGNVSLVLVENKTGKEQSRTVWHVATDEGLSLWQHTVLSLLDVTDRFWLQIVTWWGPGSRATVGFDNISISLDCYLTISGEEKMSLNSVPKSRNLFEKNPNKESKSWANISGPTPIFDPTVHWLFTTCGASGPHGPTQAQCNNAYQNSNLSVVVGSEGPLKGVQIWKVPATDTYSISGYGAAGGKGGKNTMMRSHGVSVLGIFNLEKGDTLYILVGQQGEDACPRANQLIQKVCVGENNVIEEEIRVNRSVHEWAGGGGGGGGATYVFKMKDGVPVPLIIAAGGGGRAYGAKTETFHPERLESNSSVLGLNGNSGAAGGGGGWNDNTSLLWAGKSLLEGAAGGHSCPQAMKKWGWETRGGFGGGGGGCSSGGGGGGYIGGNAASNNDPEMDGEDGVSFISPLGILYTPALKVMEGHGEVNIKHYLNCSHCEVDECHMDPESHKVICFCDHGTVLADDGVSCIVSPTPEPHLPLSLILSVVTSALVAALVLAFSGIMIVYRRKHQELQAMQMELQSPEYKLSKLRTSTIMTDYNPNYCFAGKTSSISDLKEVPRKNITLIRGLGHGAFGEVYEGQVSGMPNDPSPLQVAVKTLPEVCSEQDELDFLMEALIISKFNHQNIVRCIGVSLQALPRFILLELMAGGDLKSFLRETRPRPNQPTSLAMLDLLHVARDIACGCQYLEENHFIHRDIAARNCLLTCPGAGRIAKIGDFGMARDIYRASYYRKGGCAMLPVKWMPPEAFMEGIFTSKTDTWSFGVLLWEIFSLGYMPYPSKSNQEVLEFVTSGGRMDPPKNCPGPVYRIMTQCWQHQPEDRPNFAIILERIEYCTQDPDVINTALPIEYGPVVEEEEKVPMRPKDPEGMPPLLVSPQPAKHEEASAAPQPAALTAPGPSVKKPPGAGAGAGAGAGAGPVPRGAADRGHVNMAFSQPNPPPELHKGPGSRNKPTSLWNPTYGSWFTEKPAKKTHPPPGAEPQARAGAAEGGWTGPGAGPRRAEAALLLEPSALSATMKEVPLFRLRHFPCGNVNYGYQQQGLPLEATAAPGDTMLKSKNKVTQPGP
T2 sequence (Q9UM73 19-1620 limits assumed): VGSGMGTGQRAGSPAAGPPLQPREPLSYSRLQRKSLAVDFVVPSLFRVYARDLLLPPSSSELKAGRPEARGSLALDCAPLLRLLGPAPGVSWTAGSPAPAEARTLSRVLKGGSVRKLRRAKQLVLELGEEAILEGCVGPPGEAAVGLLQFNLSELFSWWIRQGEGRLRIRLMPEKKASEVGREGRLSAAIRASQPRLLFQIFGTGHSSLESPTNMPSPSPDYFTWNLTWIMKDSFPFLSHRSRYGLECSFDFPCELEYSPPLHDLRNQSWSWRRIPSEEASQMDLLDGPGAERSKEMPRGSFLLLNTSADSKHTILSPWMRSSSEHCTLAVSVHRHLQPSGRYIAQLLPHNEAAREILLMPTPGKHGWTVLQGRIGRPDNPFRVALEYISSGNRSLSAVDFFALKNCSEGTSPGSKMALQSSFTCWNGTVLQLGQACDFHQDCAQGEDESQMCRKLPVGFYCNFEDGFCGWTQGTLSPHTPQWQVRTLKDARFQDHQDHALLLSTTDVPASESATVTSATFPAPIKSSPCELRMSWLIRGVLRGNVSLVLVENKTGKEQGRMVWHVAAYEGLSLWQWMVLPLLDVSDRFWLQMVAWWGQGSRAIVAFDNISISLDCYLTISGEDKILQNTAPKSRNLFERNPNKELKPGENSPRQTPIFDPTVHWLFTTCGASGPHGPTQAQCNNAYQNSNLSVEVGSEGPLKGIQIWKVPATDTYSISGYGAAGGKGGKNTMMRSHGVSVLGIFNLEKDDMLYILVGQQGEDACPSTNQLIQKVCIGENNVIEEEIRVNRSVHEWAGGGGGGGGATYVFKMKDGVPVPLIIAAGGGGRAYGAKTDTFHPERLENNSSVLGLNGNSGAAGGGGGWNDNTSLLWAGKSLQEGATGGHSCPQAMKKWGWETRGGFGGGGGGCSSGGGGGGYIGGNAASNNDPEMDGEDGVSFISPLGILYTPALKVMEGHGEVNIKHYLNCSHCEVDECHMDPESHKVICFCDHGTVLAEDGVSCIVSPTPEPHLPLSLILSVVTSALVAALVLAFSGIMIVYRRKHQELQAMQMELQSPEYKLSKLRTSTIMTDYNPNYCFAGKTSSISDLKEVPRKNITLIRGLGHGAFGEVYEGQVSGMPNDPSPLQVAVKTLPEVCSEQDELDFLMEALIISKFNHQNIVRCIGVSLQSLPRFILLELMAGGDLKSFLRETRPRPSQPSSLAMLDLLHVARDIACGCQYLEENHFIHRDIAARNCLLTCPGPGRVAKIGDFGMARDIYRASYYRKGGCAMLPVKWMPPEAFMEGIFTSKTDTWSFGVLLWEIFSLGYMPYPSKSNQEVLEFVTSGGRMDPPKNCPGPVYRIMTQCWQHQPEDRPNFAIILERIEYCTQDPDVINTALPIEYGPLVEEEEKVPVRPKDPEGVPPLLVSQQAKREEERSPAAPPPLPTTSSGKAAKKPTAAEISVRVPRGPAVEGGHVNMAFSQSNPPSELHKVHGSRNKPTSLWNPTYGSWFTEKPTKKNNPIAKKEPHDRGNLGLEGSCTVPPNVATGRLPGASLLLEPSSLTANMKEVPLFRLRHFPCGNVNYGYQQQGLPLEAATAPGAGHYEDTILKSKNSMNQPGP

Binder	binding result [1]	binding result [2]
TIR-domain-containing adapter-inducing interferon-β (TRIF), mouse, endogenous in iBMDMs and RAW264.7 cells (other, UniProt Q80UF7 1-732, looked up, Endogenous protein in cell lysates; also called TICAM-1) MDNPGPSLRGAFGILGALERDRLTHLKHKLGSLCSGSQESKLLHAMVLLALGQDTEARVSLESLKMNTVAQLVAHQWADMETTEGPEEPPDLSWTVARLYHLLAEENLCPASTRDMAYQVALRDFASQGDHQLGQLQNEAWDRCSSDIKGDPSGFQPLHSHQGSLQPPSASPAVTRSQPRPIDTPDWSWGHTLHSTNSTASLASHLEISQSPTLAFLSSHHGTHGPSKLCNTPLDTQEPQLVPEGCQEPEEISWPPSVETSVSLGLPHEISVPEVSPEEASPILPDALAAPDTSVHCPIECTELSTNSRSPLTSTTESVGKQWPITSQRSPQVPVGDDSLQNTTSSSPPAQPPSLQASPKLPPSPLSSASSPSSYPAPPTSTSPVLDHSETSDQKFYNFVVIHARADEQVALRIREKLETLGVPDGATFCEEFQVPGRGELHCLQDAIDHSGFTILLLTASFDCSLSLHQINHALMNSLTQSGRQDCVIPLLPLECSQAQLSPDTTRLLHSIVWLDEHSPIFARKVANTFKTQKLQAQRVRWKKAQEARTLKEQSIQLEAERQNVAAISAAYTAYVHSYRAWQAEMNKLGVAFGKNLSLGTPTPSWPGCPQPIPSHPQGGTPVFPYSPQPPSFPQPPCFPQPPSFPQPPSFPLPPVSSPQSQSFPSASSPAPQTPGPQPLIIHHAQMVQLGVNNHMWGHTGAQSSDDKTECSENPCMGPLTDQGEPLLETPE	no binding	
TANK-binding kinase 1 (TBK1), human, endogenous in THP1 cells (enzyme, UniProt Q9UHD2 1-729, looked up, Endogenous protein in cell lysates; also called TBK1/NAK) MQSTSNHLWLLSDILGQGATANVFRGRHKKTGDLFAIKVFNNISFLRPVDVQMREFEVLKKLNHKNIVKLFAIEEETTTRHKVLIMEFCPCGSLYTVLEEPSNAYGLPESEFLIVLRDVVGGMNHLRENGIVHRDIKPGNIMRVIGEDGQSVYKLTDFGAARELEDDEQFVSLYGTEEYLHPDMYERAVLRKDHQKKYGATVDLWSIGVTFYHAATGSLPFRPFEGPRRNKEVMYKIITGKPSGAISGVQKAENGPIDWSGDMPVSCSLSRGLQVLLTPVLANILEADQEKCWGFDQFFAETSDILHRMVIHVFSLQQMTAHKIYIHSYNTATIFHELVYKQTKIISSNQELIYEGRRLVLEPGRLAQHFPKTTEENPIFVVSREPLNTIGLIYEKISLPKVHPRYDLDGDASMAKAITGVVCYACRIASTLLLYQELMRKGIRWLIELIKDDYNETVHKKTEVVITLDFCIRNIEKTVKVYEKLMKINLEAAELGEISDIHTKLLRLSSSQGTIETSLQDIDSRLSPGGSLADAWAHQEGTHPKDRNVEKLQVLLNCMTEIYYQFKKDKAERRLAYNEEQIHKFDKQKLYYHATKAMTHFTDECVKKYEAFLNKSEEWIRKMLHLRKQLLSLTNQCFDIEEEVSKYQEYTNELQETLPQKMFTASSGIKHTMTPIYPSSNTLVEMTLGMKKLKEEMEGVVKELAENNHILERFGSLTMDGGLRNVDCL		no binding
cyclic-guanosine monophosphate-adenosine monophosphate (cGAMP) synthase (cGAS), human, endogenous in THP1 cells (enzyme, UniProt Q8N884 1-522, looked up, Endogenous protein in cell lysates) MQPWHGKAMQRASEAGATAPKASARNARGAPMDPTESPAAPEAALPKAGKFGPARKSGSRQKKSAPDTQERPPVRATGARAKKAPQRAQDTQPSDATSAPGAEGLEPPAAREPALSRAGSCRQRGARCSTKPRPPPGPWDVPSPGLPVSAPILVRRDAAPGASKLRAVLEKLKLSRDDISTAAGMVKGVVDHLLLRLKCDSAFRGVGLLNTGSYYEHVKISAPNEFDVMFKLEVPRIQLEEYSNTRAYYFVKFKRNPKENPLSQFLEGEILSASKMLSKFRKIIKEEINDIKDTDVIMKRKRGGSPAVTLLISEKISVDITLALESKSSWPASTQEGLRIQNWLSAKVRKQLRLKPFYLVPKHAKEGNGFQEETWRLSFSHIEKEILNNHGKSKTCCENKEEKCCRKDCLKLMKYLLEQLKERFKDKKHLDKFSSYHVKTAFFHVCTQNPQDSQWDRKDLGLCFDNCVTYFLQCLRTEKLENYFIPEFNLFSSNLIDKRSKEFLTKQIEYERNNEFPVFDEF		no binding
TANK-binding kinase 1 (TBK1), mouse, endogenous in iBMDMs and RAW264.7 cells (enzyme, UniProt Q9WUN2 1-729, looked up, Endogenous protein in cell lysates; also called TBK1/NAK) MQSTSNHLWLLSDILGQGATANVFRGRHKKTGDLYAVKVFNNISFLRPVDVQMREFEVLKKLNHKNIVKLFAIEEETTTRHKVLIMEFCPCGSLYTVLEEPSNAYGLPESEFLIVLRDVVGGMNHLRENGIVHRDIKPGNIMRVIGEDGQSVYKLTDFGAARELEDDEQFVSLYGTEEYLHPDMYERAVLRKDHQKKYGATVDLWSVGVTFYHAATGSLPFRPFEGPRRNKEVMYKIITGKPSGAISGVQKAENGPIDWSGDMPLSCSLSQGLQALLTPVLANILEADQEKCWGFDQFFAETSDVLHRMVIHVFSLQHMTAHKIYIHSYNTAAVFHELVYKQTKIVSSNQELIYEGRRLVLELGRLAQHFPKTTEENPIFVTSREQLNTVGLRYEKISLPKIHPRYDLDGDASMAKAVTGVVCYACRTASTLLLYQELMRKGVRWLVELVKDDYNETVHKKTEVVITLDFCIRNIEKTVKVYEKLMKVNLEAAELGEISDIHTKLLRLSSSQGTIESSLQDISSRLSPGGLLADTWAHQEGTHPRDRNVEKLQVLLNCITEIYYQFKKDKAERRLAYNEEQIHKFDKQKLYYHATKAMSHFSEECVRKYEAFKDKSEEWMRKMLHLRKQLLSLTNQCFDIEEEVSKYQDYTNELQETLPQKMLAASGGVKHAMAPIYPSSNTLVEMTLGMKKLKEEMEGVVKELAENNHILERFGSLTMDGGLRNVDCL	no binding	
stimulator of interferon genes (STING), mouse, endogenous in iBMDMs and RAW264.7 cells (other, UniProt Q3TBT3 1-378, looked up, Endogenous protein in cell lysates) MPYSNLHPAIPRPRGHRSKYVALIFLVASLMILWVAKDPPNHTLKYLALHLASHELGLLLKNLCCLAEELCHVQSRYQGSYWKAVRACLGCPIHCMAMILLSSYFYFLQNTADIYLSWMFGLLVLYKSLSMLLGLQSLTPAEVSAVCEEKKLNVAHGLAWSYYIGYLRLILPGLQARIRMFNQLHNNMLSGAGSRRLYILFPLDCGVPDNLSVVDPNIRFRDMLPQQNIDRAGIKNRVYSNSVYEILENGQPAGVCILEYATPLQTLFAMSQDAKAGFSREDRLEQAKLFCRTLEEILEDVPESRNNCRLIVYQEPTDGNSFSLSQEVLRHIRQEEKEEVTMNAPMTSVAPPPSVLSQEPRLLISGMDQPLPLRTDLI	no binding	
